Tests used:
[1] = target: T1, Human CD27, full length on the cell surface (human, UniProt P26842 21-260); experiment: cell-based or functional assay
[2] = target: T2, Human CD27 ECD, monomeric soluble (construct limits not stated) (human, UniProt P26842 20-191); experiment: Biacore SPR, purified mAb, CD27 ECD
T2 construct: extracellular domain; target of the Biacore assays; also called monomeric soluble CD27; CD27-His

[3] = target: T3, Human CD27 ECD truncated (ECD 1-121, cleavage site, His6) (human); experiment: ELISA signal for binding to CD27, initial small culture supernatants
T3 construct: also called human CD27 ECD with His Tag; CD27-His
T3 chain: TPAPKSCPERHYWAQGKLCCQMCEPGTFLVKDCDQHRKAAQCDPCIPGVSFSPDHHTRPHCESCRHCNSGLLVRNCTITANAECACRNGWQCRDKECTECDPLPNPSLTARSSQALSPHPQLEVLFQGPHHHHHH

[4] = target: T1, Human CD27, full length on the cell …; experiment: cell-based or functional assay; remark: listed apart in the source
[5] = target: T2, Human CD27 ECD, monomeric soluble …; experiment: Biacore SPR, purified mAb
[6] = target: T4, Human CD27 ECD (ECD 1-173, His6) (human, UniProt P26842 21-193, biotinylated on amine residues (NHS-ester) where used biotinylated); experiment: single point Fab ELISA
T4 construct: also called biotinylated human CD27 ECD

[7] = target: T3, Human CD27 ECD truncated (ECD 1-121, …); experiment: ProteOn SPR, culture supernatants

T2 sequence (P26842 20-191): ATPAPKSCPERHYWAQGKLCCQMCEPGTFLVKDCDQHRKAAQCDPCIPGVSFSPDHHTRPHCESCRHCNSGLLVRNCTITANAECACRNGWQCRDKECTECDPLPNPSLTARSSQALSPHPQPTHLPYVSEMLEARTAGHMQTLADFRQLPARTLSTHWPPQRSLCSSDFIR
T1 sequence (P26842 21-260 H233R): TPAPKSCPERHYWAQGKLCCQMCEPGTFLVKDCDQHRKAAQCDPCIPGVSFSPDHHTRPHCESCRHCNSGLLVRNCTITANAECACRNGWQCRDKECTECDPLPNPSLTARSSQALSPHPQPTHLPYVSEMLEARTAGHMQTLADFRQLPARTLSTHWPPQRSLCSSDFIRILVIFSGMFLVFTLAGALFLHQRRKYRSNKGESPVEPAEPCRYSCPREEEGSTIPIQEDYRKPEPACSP

B1: M489 (antibody, IgG1, V domains shown)
VH: QVQLVESGGGLVKPGGSLRLSCAASGFTFSSYGMSWIRQAPGKGLEWVSYIDEGGGQTIYPDSVKGRFTISRDNAKNSLYLQMNSLRAEDTAVYYCARHRGNPFDYWGQGTLVTVSS
VL: DIQMTQSPSSLSASVGDRVTITCRASKSVSLDRWSFMHWYQQKPGKAPKLLIYLASNLESGVPSRFSGSGSGTDFTFTISSLQPEDIATYYCQHSRELPWTFGQGTKVEIK
notes: also called H227/L250
[1]
  NFkB IC50: 0.041 nM
[2]
  Kd: 0.0241 nM
[3]
  ELISA signal: 0.96

B2: M488 (antibody, IgG1, V domains shown)
VH: QVQLVESGGGLVKPGGSLRLSCAASGFTFSSYGMSWIRQAPGKGLEWVSYIDEGGGQTIYPDSVKGRFTISRDNAKNSLYLQMNSLRAEDTAVYYCARHRGNPFDYWGQGTLVTVSS
VL: DIQMTQSPSSLSASVGDRVTITCRASKSVSEGRWSFMHWYQQKPGKAPKLLIYVASRLESGVPSRFSGSGSGTDFTFTISSLQPEDIATYYCQHSRELPWTFGQGTKVEIK
notes: also called H227/L249
[1]
  NFkB IC50: 0.023 nM
[2]
  Kd: 0.0394 nM
[3]
  ELISA signal: 0.92

B3: M694 (antibody, V domains shown)
VH: QVQLVESGGGLVKPGGSLRLSCAASGFTFSSYGMSWIRQAPGKGLEWVSYIDEGGGQTIYPDSVKGRFTISRDNAKNSLYLQMNSLRAEDTAVYYCARHRGNPFDYWGQGTLVTVSS
VL: DIQMTQSPSSLSASVGDRVTITCRASKSVSEGRWSFMHWYQQKPGKAPKLLIYVASRLESGVPSRFSGSGSGTDFTFTISSLQPEDIATYYCQHSRELPWTFGQGTKVEIK
notes: also called single-gene DNA ID 694
[4]
  NF-kB Assay IC50: 0.42 nM
[5]
  Kd: 0.105 nM
  koff: 7.6e-05 s⁻¹
  kon: 480000 M⁻¹ s⁻¹

B4: M707 (antibody, V domains shown)
VH: EVQLLESGGGLVQPGGSLRLSCAASGFTFSSYTMSWVRQAPGKGLEWVSAIDHGGGQTLYPDSVKGRFTISRDNSKNTLYLQMNSLRAEDTAVYYCARHRGNPFDYWGQGTLVTVSS
VL: DIQMTQSPSSLSASVGDRVTITCRASKSVSHVRWSFMHWYQQKPGKAPKLLIYLASNLESGVPSRFSGSGSGTDFTLTISSLQPEDFATYYCQHSRELPWTFGQGTKVEIK
notes: also called single-gene DNA ID 707
[4]
  NF-kB Assay IC50: 0.26 nM
[5]
  Kd: 0.213 nM
  koff: 0.000124 s⁻¹
  kon: 585000 M⁻¹ s⁻¹

B5: M695 (antibody, V domains shown)
VH: QVQLVESGGGLVKPGGSLRLSCAASGFTFSSYSMSWIRQAPGKGLEWVSYIDAGGGFTIYPDSVKGRFTISRDNAKNSLYLQMNSLRAEDTAVYYCARHRGNPFDYWGQGTLVTVSS
VL: DIQMTQSPSSLSASVGDRVTITCRASKSVSEGRWSFMHWYQQKPGKAPKLLIYVASRLESGVPSRFSGSGSGTDFTFTISSLQPEDIATYYCQHSRELPWTFGQGTKVEIK
notes: also called single-gene DNA ID 695
[4]
  NF-kB Assay IC50: 0.25 nM
[5]
  Kd: 0.202 nM
  koff: 0.00017 s⁻¹
  kon: 510000 M⁻¹ s⁻¹

B6: M708 (antibody, V domains shown)
VH: EVQLLESGGGLVQPGGSLRLSCAASGFTFSSYTMSWVRQAPGKGLEWVSVIDHGGGSTHYPDSVKGRFTISRDNSKNTLYLQMNSLRAEDTAVYYCARHRGNPFDYWGQGTLVTVSS
VL: DIQMTQSPSSLSASVGDRVTITCRASKSVSTSGYSFMHWYQQKPGKAPKLLIYVGSRLDYGVPSRFSGSGSGTDFTLTISSLQPEDFATYYCQHSRELPWTFGQGTKVEIK
notes: also called single-gene DNA ID 708
[4]
  NF-kB Assay IC50: 0.26 nM
[5]
  Kd: 0.35 nM
  koff: 0.000225 s⁻¹
  kon: 643000 M⁻¹ s⁻¹

B7: M492 (antibody, IgG1, V domains shown)
VH: QVQLVESGGGLVKPGGSLRLSCAASGFTFSSYSMSWIRQAPGKGLEWVSYIDAGGGFTIYPDSVKGRFTISRDNAKNSLYLQMNSLRAEDTAVYYCARHRGNPFDYWGQGTLVTVSS
VL: DIQMTQSPSSLSASVGDRVTITCRASKSVSEGRWSFMHWYQQKPGKAPKLLIYVASRLESGVPSRFSGSGSGTDFTFTISSLQPEDIATYYCQHSRELPWTFGQGTKVEIK
notes: also called H228/L249
[1]
  NFkB IC50: 0.015 nM
[2]
  Kd: 0.142 nM
[3]
  ELISA signal: 0.77

B8: M427 (antibody, IgG1, V domains shown)
VH: QVQLVESGGGLVKPGGSLRLSCAASGFTFSSYGMSWIRQAPGKGLEWVSYIDEGGGQTIYPDSVKGRFTISRDNAKNSLYLQMNSLRAEDTAVYYCARHRGNPFDYWGQGTLVTVSS
VL: DIQMTQSPSSLSASVGDRVTITCRASKSVSAWGYSFMHWYQQKPGKAPKLLIYVASRLESGVPSRFSGSGSGTDFTFTISSLQPEDIATYYCQHSRELPWTFGQGTKVEIK
notes: also called H227/L244; C27H227/C27L244
[1]
  NFkB IC50: 0.019 nM
[2]
  Kd: 0.0417 nM
[3]
  ELISA signal: 0.93

B9: M501 (antibody, IgG1, V domains shown)
VH: QVQLVESGGGLVKPGGSLRLSCAASGFTFSSYSMSWIRQAPGKGLEWVSHIDAGGGRTWYPDSVKGRFTISRDNAKNSLYLQMNSLRAEDTAVYYCARHRGNPFDYWGQGTLVTVSS
VL: DIQMTQSPSSLSASVGDRVTITCRASKSVSLDRWSFMHWYQQKPGKAPKLLIYLASNLESGVPSRFSGSGSGTDFTFTISSLQPEDIATYYCQHSRELPWTFGQGTKVEIK
notes: also called H231/L250
[1]
  NFkB IC50: 0.004 nM
[2]
  Kd: 0.0742 nM
[3]
  ELISA signal: 0.77

B10: M526 (antibody, IgG1, V domains shown)
VH: QVQLVESGGGLVKPGGSLRLSCAASGFTFSSYGMSWIRQAPGKGLEWVSYIDRGGGVTIYPDSVKGRFTISRDNAKNSLYLQMNSLRAEDTAVYYCARHRGNPFDYWGQGTLVTVSS
VL: DIQMTQSPSSLSASVGDRVTITCRASKSVSEGRWSFMHWYQQKPGKAPKLLIYVASRLESGVPSRFSGSGSGTDFTFTISSLQPEDIATYYCQHSRELPWTFGQGTKVEIK
notes: also called H222/L249
[1]
  NFkB IC50: 0.006 nM
[2]
  Kd: 0.171 nM
[3]
  ELISA signal: 0.69

B11: F302 (Fab, V domains shown)
VH: EVQLLESGGGLVQPGGSLRLSCAASGFTFSSYTMSWVRQAPGKGLEWVSYISSGGGNTYYPDSVKGRFTISRDNSKNTLYLQMNSLRAEDTAVYYCARHRGNPFDYWGQGTLVTVSS
VL: DIQMTQSPSSLSASVGDRVTITCRASKSVSLIRWSFMHWYQQKPGKAPKLLIYLASNLESGVPSRFSGSGSGTDFTLTISSLQPEDFATYYCQHSRELPWTFGQGTKVEIK
notes: also called H39/L179
[6]
  binding result: binds

B12: F297 (Fab, V domains shown)
VH: EVQLLESGGGLVQPGGSLRLSCAASGFTFSSYTMSWVRQAPGKGLEWVSTIDRGGGSTWYPDSVKGRFTISRDNSKNTLYLQMNSLRAEDTAVYYCARHRGNPFDYWGQGTLVTVSS
VL: DIQMTQSPSSLSASVGDRVTITCRASKSVSTSGYSFMHWYQQKPGKAPKLLIYLASNLESGVPSRFSGSGSGTDFTLTISSLQPEDFATYYCQHSRELPWTFGQGTKVEIK
notes: also called H190/L40
[6]
  binding result: binds

B13: M493 (antibody, IgG1, V domains shown)
VH: QVQLVESGGGLVKPGGSLRLSCAASGFTFSSYSMSWIRQAPGKGLEWVSYIDAGGGFTIYPDSVKGRFTISRDNAKNSLYLQMNSLRAEDTAVYYCARHRGNPFDYWGQGTLVTVSS
VL: DIQMTQSPSSLSASVGDRVTITCRASKSVSLDRWSFMHWYQQKPGKAPKLLIYLASNLESGVPSRFSGSGSGTDFTFTISSLQPEDIATYYCQHSRELPWTFGQGTKVEIK
notes: also called H228/L250
[1]
  NFkB IC50: 0.014 nM
[2]
  Kd: 0.145 nM
[3]
  ELISA signal: 0.85

B14: M429 (antibody, IgG1, V domains shown)
VH: QVQLVESGGGLVKPGGSLRLSCAASGFTFSSYGMSWIRQAPGKGLEWVSYIDEGGGQTIYPDSVKGRFTISRDNAKNSLYLQMNSLRAEDTAVYYCARHRGNPFDYWGQGTLVTVSS
VL: DIQMTQSPSSLSASVGDRVTITCRASKSVSHVRWSFMHWYQQKPGKAPKLLIYLASKLESGVPSRFSGSGSGTDFTFTISSLQPEDIATYYCQHSRELPWTFGQGTKVEIK
notes: also called H227/L245
[1]
  NFkB IC50: 0.042 nM
[2]
  Kd: 0.0304 nM
[3]
  ELISA signal: 0.86

B15: F299 (Fab, V domains shown)
VH: EVQLLESGGGLVQPGGSLRLSCAASGFTFSSYTMSWVRQAPGKGLEWVSVIDHGGGSTHYPDSVKGRFTISRDNSKNTLYLQMNSLRAEDTAVYYCARHRGNPFDYWGQGTLVTVSS
VL: DIQMTQSPSSLSASVGDRVTITCRASKSVSTSGYSFMHWYQQKPGKAPKLLIYLASNLESGVPSRFSGSGSGTDFTLTISSLQPEDFATYYCQHSRELPWTFGQGTKVEIK
notes: also called H192/L40
[6]
  binding result: binds

B16: F298 (Fab, V domains shown)
VH: EVQLLESGGGLVQPGGSLRLSCAASGFTFSSYTMSWVRQAPGKGLEWVSAIDGGGGATYYPDSVKGRFTISRDNSKNTLYLQMNSLRAEDTAVYYCARHRGNPFDYWGQGTLVTVSS
VL: DIQMTQSPSSLSASVGDRVTITCRASKSVSTSGYSFMHWYQQKPGKAPKLLIYLASNLESGVPSRFSGSGSGTDFTLTISSLQPEDFATYYCQHSRELPWTFGQGTKVEIK
notes: also called H191/L40
[6]
  binding result: binds

B17: M696 (antibody, V domains shown)
VH: QVQLVESGGGLVKPGGSLRLSCAASGFTFSSYGMSWIRQAPGKGLEWVSYIDEGGGQTIYPDSVKGRFTISRDNAKNSLYLQMNSLRAEDTAVYYCARHRGNPFDYWGQGTLVTVSS
VL: DIQMTQSPSSLSASVGDRVTITCRASKSVSHVRWSFMHWYQQKPGKAPKLLIYLASKLESGVPSRFSGSGSGTDFTFTISSLQPEDIATYYCQHSRELPWTFGQGTKVEIK
notes: also called single-gene DNA ID 696
[4]
  NF-kB Assay IC50: 0.33 nM
[5]
  Kd: 0.057 nM
  koff: 2.1e-05 s⁻¹
  kon: 370000 M⁻¹ s⁻¹

B18: M596 (antibody, V domains shown)
VH: EVQLVQSGAEVKKPGESLKISCKGSGYAFSSSWMNWVRQMPGKGLEWMGRIYAGDGDTNYSPSFQGQVTISADKSISTAYLQWSSLKASDTAMYYCARSDYYGDYGFAYWGQGTLVTVSS
VL: DIVMTQSPDSLAVSLGERATINCKASQSVDYAGDSWMNWYQQKPGQPPKLLIYTASNLESGVPDRFSGSGSGTDFTLTISSLLAEDVAVYYCQQSNEDPYTFGQGTKLEIK
notes: IgG; subclass not restated (path 1 mAbs were human IgG1/kappa); also called H239/L257
[7]
  Kd: 0.025 nM

From US20130243795A1 (Janssen / Centocor, published 2013)
